Values quoted from earlier work, collected in PMC8472222.

Target: Rad57 (Saccharomyces cerevisiae) (UniProt P25301)
Sequence of UniProt P25301 (P25301 whole entry): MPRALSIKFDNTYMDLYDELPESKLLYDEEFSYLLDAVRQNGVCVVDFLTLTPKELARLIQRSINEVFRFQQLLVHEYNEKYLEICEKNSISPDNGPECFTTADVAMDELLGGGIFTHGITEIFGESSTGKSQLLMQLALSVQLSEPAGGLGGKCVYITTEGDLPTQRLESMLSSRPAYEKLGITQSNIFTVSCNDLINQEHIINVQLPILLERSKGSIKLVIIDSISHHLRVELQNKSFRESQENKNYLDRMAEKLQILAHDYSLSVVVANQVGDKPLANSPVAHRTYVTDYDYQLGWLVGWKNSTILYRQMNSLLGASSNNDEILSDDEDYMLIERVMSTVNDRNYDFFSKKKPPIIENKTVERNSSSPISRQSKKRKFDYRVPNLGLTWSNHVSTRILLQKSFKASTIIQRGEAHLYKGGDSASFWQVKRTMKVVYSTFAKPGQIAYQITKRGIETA

Rad55 (from UniProt P38953)
Kd: < 0.2 nM
